According to publication PMC7088854 (Molecular and Cellular Biochemistry, 2009):

T1: Myc-DC-SIGNR (UniProt Q9H2X3 1-399)
T1 sequence (looked up): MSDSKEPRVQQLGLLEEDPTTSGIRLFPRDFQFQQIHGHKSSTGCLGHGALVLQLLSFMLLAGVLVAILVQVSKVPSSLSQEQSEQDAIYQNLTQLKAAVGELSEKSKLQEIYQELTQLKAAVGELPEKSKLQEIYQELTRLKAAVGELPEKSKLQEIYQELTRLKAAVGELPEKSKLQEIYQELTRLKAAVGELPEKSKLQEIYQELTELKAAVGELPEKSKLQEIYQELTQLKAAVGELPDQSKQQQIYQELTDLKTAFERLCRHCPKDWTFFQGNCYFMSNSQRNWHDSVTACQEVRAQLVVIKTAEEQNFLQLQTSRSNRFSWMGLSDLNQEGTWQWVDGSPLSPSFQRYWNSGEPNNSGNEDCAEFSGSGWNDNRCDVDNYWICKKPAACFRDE


Target: T1, Myc-DC-SIGNR
Experiment: co-IP

co-precipitated amount relative to wild-type LSECtin (onefold) | Binder
1.2 fold of wild type | Flag-LSECtin D1 (deletion of the potential endocytic motif) (receptor, UniProt Q6UXB4 1-293, looked up) MDTTRGGSSEEVPGGPWGRWVHWSRRPLFLALAVLVTTVLWAVILSILLSKASTERAALLDGHDLLRTNASKQTAALGALKEEVGDCHSCCSGTQAQLQTTRAELGEAQAKLMEQESALRELRERVTQGLAEAGRGREDVRTELFRALEAVRLQNNSCEPCPTSWLSFEGSCYFFSVPKTTWAAAQDHCADASAHLVIVGGLDEQGFLTRNTRGRGYWLGLRAVRHLGKVQGYQWVDGVSLSFSHWNQGEPNDAWGRENCVMMLHTGLWNDAPCDSEKDGWICEKRHNC
0.8 fold of wild type | Flag-LSECtin M1 (N73A) (receptor, UniProt Q6UXB4 1-293, looked up) MDTTRYSKWGGSSEEVPGGPWGRWVHWSRRPLFLALAVLVTTVLWAVILSILLSKASTERAALLDGHDLLRTAASKQTAALGALKEEVGDCHSCCSGTQAQLQTTRAELGEAQAKLMEQESALRELRERVTQGLAEAGRGREDVRTELFRALEAVRLQNNSCEPCPTSWLSFEGSCYFFSVPKTTWAAAQDHCADASAHLVIVGGLDEQGFLTRNTRGRGYWLGLRAVRHLGKVQGYQWVDGVSLSFSHWNQGEPNDAWGRENCVMMLHTGLWNDAPCDSEKDGWICEKRHNC
1.5 fold of wild type | Flag-LSECtin M2 (N159A) (receptor, UniProt Q6UXB4 1-293, looked up) MDTTRYSKWGGSSEEVPGGPWGRWVHWSRRPLFLALAVLVTTVLWAVILSILLSKASTERAALLDGHDLLRTNASKQTAALGALKEEVGDCHSCCSGTQAQLQTTRAELGEAQAKLMEQESALRELRERVTQGLAEAGRGREDVRTELFRALEAVRLQANSCEPCPTSWLSFEGSCYFFSVPKTTWAAAQDHCADASAHLVIVGGLDEQGFLTRNTRGRGYWLGLRAVRHLGKVQGYQWVDGVSLSFSHWNQGEPNDAWGRENCVMMLHTGLWNDAPCDSEKDGWICEKRHNC
0.8 fold of wild type | Flag-LSECtin D3 (deficiency of the CRD/CTLD domain) (domain or fragment, UniProt Q6UXB4 1-162, looked up) MDTTRYSKWGGSSEEVPGGPWGRWVHWSRRPLFLALAVLVTTVLWAVILSILLSKASTERAALLDGHDLLRTNASKQTAALGALKEEVGDCHSCCSGTQAQLQTTRAELGEAQAKLMEQESALRELRERVTQGLAEAGRGREDVRTELFRALEAVRLQNNSC
